Reference: publication PMC6889417, “Derepression of LOXL4 inhibits liver cancer growth by reactivating compromised p53” (Cell Death and Differentiation, 2019)

Target: wild-type p53, endogenous (human (endogenous in SK-Hep1, HepG2), UniProt P04637 1-393)
Assay: cell-based or functional assay

Sequence of wild-type p53, endogenous (P04637 whole entry): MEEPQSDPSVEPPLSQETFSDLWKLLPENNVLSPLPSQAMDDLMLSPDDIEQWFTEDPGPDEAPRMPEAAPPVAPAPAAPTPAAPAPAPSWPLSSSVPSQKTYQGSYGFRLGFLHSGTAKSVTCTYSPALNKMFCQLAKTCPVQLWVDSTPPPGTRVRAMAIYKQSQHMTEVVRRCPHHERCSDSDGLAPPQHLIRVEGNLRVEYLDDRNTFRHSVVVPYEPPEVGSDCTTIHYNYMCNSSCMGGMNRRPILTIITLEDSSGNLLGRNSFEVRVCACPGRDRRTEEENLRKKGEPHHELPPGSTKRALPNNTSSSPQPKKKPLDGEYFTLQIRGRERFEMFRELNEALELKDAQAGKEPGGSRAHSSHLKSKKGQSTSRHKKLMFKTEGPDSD

B1: lysyl oxidase-like 4 (LOXL4), endogenous (natural protein, UniProt Q96JB6 25-756, looked up)
chain: QSLGTTKLRLVGPESKPEEGRLEVLHQGQWGTVCDDNFAIQEATVACRQLGFEAALTWAHSAKYGQGEGPIWLDNVRCVGTESSLDQCGSNGWGVSDCSHSEDVGVICHPRRHRGYLSETVSNALGPQGRRLEEVRLKPILASAKQHSPVTEGAVEVKYEGHWRQVCDQGWTMNNSRVVCGMLGFPSEVPVDSHYYRKVWDLKMRDPKSRLKSLTNKNSFWIHQVTCLGTEPHMANCQVQVAPARGKLRPACPGGMHAVVSCVAGPHFRPPKTKPQRKGSWAEEPRVRLRSGAQVGEGRVEVLMNRQWGTVCDHRWNLISASVVCRQLGFGSAREALFGARLGQGLGPIHLSEVRCRGYERTLSDCPALEGSQNGCQHENDAAVRCNVPNMGFQNQVRLAGGRIPEEGLLEVQVEVNGVPRWGSVCSENWGLTEAMVACRQLGLGFAIHAYKETWFWSGTPRAQEVVMSGVRCSGTELALQQCQRHGPVHCSHGGGRFLAGVSCMDSAPDLVMNAQLVQETAYLEDRPLSQLYCAHEENCLSKSADHMDWPYGYRRLLRFSTQIYNLGRTDFRPKTGRDSWVWHQCHRHYHSIEVFTHYDLLTLNGSKVAEGHKASFCLEDTNCPTGLQRRYACANFGEQGVTVGCWDTYRHDIDCQWVDITDVGPGNYIFQVIVNPHYEVAESDFSNNMLQCRCKYDGHRVWLHNCHTGNSYPANAELSLEQEQRLRNNLI
expression of the p53 target genes PIG3 and BAX (quantitative real time PCR) after 5-aza-CR (5 μM, 16 h) in WT cells against 2DR cells: > 10 fold
